Laboratory results as given in US20030049699A1 (published 2003).

B2: DB-Fos (fusion protein between the DNA-binding domain of the Gal4 protein and a fragment of the human Fos protein, amino acids 132 to 211) (other, S. cerevisiae;human, UniProt P04386 1-147, looked up)
chain: MKLLSSIEQACDICRLKKLKCSKEKPKCAKCLKNNWECRYSPKTKRSPLTRAHLTEVESRLERLEQLFLLIFPREDLDMILKMDSLQDIKALLTGLFVQDNVNKDAVTDRLASVETDMPLTLRQHRISATSSSEESSNKGQRQLTVSLSPEEEEKRRIRRERNKMAAAKCRNRRRELTDTLQAETDQLEDEKSALQTEIANLLKEKEKLEFILAAHRPACKIPDDLG
notes: Control fusion in the yeast two-hybrid test; also called DE-Fos; pPC76 product
B3: TA-C-mbp1 (C-terminal part of murine MBP1 fused with the transcription activating domain of Gal4) (other, not shown: large carriers)
chain: CTCPDGYRKIGPECVDIDECRYRYCQHRCVNLPGSFRCQCEPGFQLGPNNRSCVDVNECDMGAPCEQRCFNSYGTFLCRCNQGYELHRDGFSCSDIDECGYSSYLCQYRCVNEPGRFSCHCPQGYQLLATRLCQDIDECETGAHQCSEAQTCVNFHGGYRCVDTNRCVEPYVQVSDNRCLCPASNPLCREQPSSIVHRYMSITSERSVPADVFQIQATSVYPGAYNAFQIRSGNTQGDFYIRQINNVSAMLVLARPVTGPREYVLDLEMVTMNSLMSYRASSVLRLTVFVGAYTF
notes: Library clone from mouse embryo cDNA library pPC67; also called product of plasmid TA-C-MBP1
B4: TA-C-fibulin2 (C-terminal part of murine fibulin 2, amino acids 863 to 1195, fused with the transcription activating domain of Gal4) (other, not shown: large carriers)
chain: EGSECVDVNECETGVHRCGEGQLCYNLPGSYRCDCKPGFQRDAFGRTCIDVNECWVSPGRLCQHTCENTPGSYRCSCAAGFLLAADGKHCEDVNECETRRCSQECANIYGSYQCYCRQGYQLAEDGHTCTDIDECAQGAGILCTFRCVNVPGSYQCACPEQGYTMMANGRSCKDLDECALGTHNCSEAETCHNIQGSFRCLRFDCPPNYVRVSQTKCERTTCQDITECQTSPARITHYQLNFQTGLLVPAHIFRIGPAPAFAGDTISLTITKGNEEGYFVTRRLNAYTGVVSLQRSVLEPRDFALDVEMKLWRQGSVTTFLAKMYIFFTTFAP
notes: also called product of plasmid TA-C-FIB2

Experiments:
[1] = target: T1, DB-C-fibulin2 (C-fibulin2 fused with the DNA-binding domain of Gal4) (S. cerevisiae; murine, UniProt P04386 1-147, limits assumed); assay: yeast two-hybrid, strain PCY2, LacZ reporter
T1 construct: also called product of plasmid DB-C-FIB2

[2] = target: T2, DB-C-mbp1 (C-mbp1 fused with the DNA-binding domain of Gal4) (S. cerevisiae; murine, UniProt P04386 1-147); assay: yeast two-hybrid, strain PCY2, LacZ reporter
T2 construct: also called DB-C-mbpl; product of plasmid DB-C-MBP1

[3] = target: T3, DB protein (DNA-binding domain of Gal4 alone, plasmid pPC97) (S. cerevisiae, UniProt P04386 1-147); assay: yeast two-hybrid, strain YCM17, URA3 and LacZ reporters
T3 construct: Empty-vector control of the two-hybrid tests
Experimental: (§1) After the cotransformation, the various clones obtained were tested for the phenotypes associated with the URA3 and LacZ genes.

[4] = target: B2; assay: as above
Experimental: as §1

[5] = target: T4, DB-wt (fragment 73-393 of wild-type human p53 fused with the DNA-binding domain of Gal4) (S. cerevisiae; human, UniProt P04386 1-147; P04637 73-393); assay: as above
T4 construct: Yeast two-hybrid fusion; also called 73-393 wt in pPC97
Experimental: as §1

[6] = target: B3; assay: as above
Experimental: as §1

[7] = target: B4; assay: as above
Experimental: as §1

B1: TA (transcription activating domain of Gal4 alone, plasmid pPC86) (other, S. cerevisiae, UniProt P04386 768-881, looked up)
chain: ANFNQSGNIADSSLSFTFTNSSNGPNLITTQTNSQALSQPIASSNVHDNFMNNEITASKIDDGNNSKPLSPGWTDQTAYNAFGITTGMFNTTTMDDVYNYLFDDEDTPPNPKKE
notes: Empty-vector control of the two-hybrid tests
[1]
  binding result: no binding
[2]
  binding result: no binding
[3]
  binding result: no binding
[4]
  binding result: no binding
[5]
  binding result: no binding

## B2
[6]
  binding result: no binding
[7]
  binding result: no binding

## B3
[5]
  binding result: no binding

## B4
[5]
  binding result: no binding
